Legend:
[1] = substrate: O=C(O)[C@H]1OC(O)[C@H](O)[C@@H](O)[C@H]1O; assay: purified protein, by the assay type; details: other: D-galacturonate 0 to 10 mM, 1 mM NAD+, pH 7.5, 30° C., 30.0 °C
[2] = substrate: O=C(O)C(=O)C[C@@H](O)CO; assay: 2-keto-3-deoxy-L-arabonate dehydratase, coupled assay with KGSADH; type: biochemical, Burkholderia multivorans; details: other: coupled assay, substrate from 0-20 mM L-arabonate, 1 mM NAD+, pH 7.5, 25° C.
Experimental: (§1) 2-Keto-3-deoxy-D-xylonate dehydratase (XylX/DR64-8450), 2-keto-3-deoxy-L-arabonate dehydratase (AraD) and 5-keto-4-deoxy-D-glucarate dehydratase (YcbC): Enzyme activities of XylX, DR64-8450, AraD and YcbC were assayed spectrophotometrically in a coupled assay with the corresponding previous dehydratase and 2-ketoglutaric semialdehyde dehydrogenase (KGSADH) as previously described (Watanabe et al., 2006. J Biol. Chem. 281:33521-33536). […] The reaction was initiated by adding an appropriate amount of 2-keto-3-deoxy-D-xylonate dehydratase (XylX/DR64-8450)/2-keto-3-deoxy-L-arabonate dehydratase (AraD)/5-keto-4-deoxy-D-glucarate dehydratase (YcbC), and the increasing absorbance at 340 nm caused by NADH produced in the reaction was monitored.

[3] = substrate: O=C(O)C(=O)C[C@H](O)CO; assay: B. xenovorans 2-keto-3-deoxy-D-xylonate dehydratase, coupled assay with KGSADH; type: biochemical, Burkholderia xenovorans LB400; details: other: coupled assay, substrate from 0-20 mM D-xylonate, 1 mM NAD+, pH 7.5, 25° C.
Experimental: as §1

[4] = substrate: O=C(O)[C@@H](O)[C@H](O)[C@H](O)[C@@H](O)C(=O)O; assay: purified protein, by the assay type; details: other: 100 nM enzyme, 100 mM Tris-HCl, 5 mM MgSO4, pH 7.5
[5] = substrate: O=C(O)[C@H](O)[C@@H](O)[C@H](O)CO; assay: B. xenovorans D-xylonate dehydratase, semicarbazide method; type: biochemical, Burkholderia xenovorans LB400; details: other: 100 nM enzyme, 100 mM Tris-HCl, 5 mM MgSO4, pH 7.5
Text: (§2) Finally, the 2-ketoacids produced were quantified by detecting their semicarbazone absorbance at 250 nm.

[6] = substrate: OC1OC[C@H](O)[C@H](O)[C@H]1O; assay: L-arabinose dehydrogenase, NADH generation at 340 nm; type: biochemical, Burkholderia multivorans; details: other: L-arabinose 0 to 10 mM, 1 mM NAD+, pH 7.5, 30° C.
Experimental: A series of enzymatic assays were conducted to estimate the initial activity as a function of starting substrate concentration. […] Kinetic constants (kcat/Km) for following enzymes were calculated with the same method.

[7] = substrate: O=C(O)[C@H](O)[C@@H](O)[C@H](O)CO; assay: C. crescentus D-xylonate dehydratase, semicarbazide method; type: biochemical, Caulobacter crescentus; details: other: 100 nM enzyme, 100 mM Tris-HCl, 5 mM MgSO4, pH 7.5
Text: as §2

[8] = substrate: O=C(O)C(=O)C[C@H](O)CO; assay: C. crescentus 2-keto-3-deoxy-D-xylonate dehydratase, coupled assay with KGSADH; type: biochemical, Caulobacter crescentus; details: other: coupled assay, substrate from 0-20 mM D-xylonate, 1 mM NAD+, pH 7.5, 25° C.
Experimental: as §1

B1: Pseudomonas putida KT2440 uronate dehydrogenase (Udh) (Pseudomonas putida KT2440) (protein)
chain: MTTTPFNRLLLTGAAGGLGKVLRERLKGYAEVLRLSDISPMAPAAGPHEEVITCDLADKAAVHTLVEGVDAIIHFGGVSTEHAFEEILGPNICGVFHVYEAARKHGVKRIIFASSNHTIGFYRQDERIDAHAPRRPDSYYGLSKCYGEDVASFYFDRYGIETVSIRIGSSFPQPQNLRMLCTWLSYDDLVQLIERGLFTPGVGHTIVYGASDNRTVWWDNRHAAHLGYVPKDSSETFRAAVEAQPAPAADDPSMVYQGGAFAVAGPFN
For B1, the Km [1] was 150 µM and the kcat [1] was 24.1 s⁻¹.

B2: Burkholderia multivorans 2-keto-3-deoxy-L-arabonate dehydratase (AraD, BmulJ 5321) (Burkholderia multivorans ATCC 17616) (protein)
chain: MTSSRTPRYRGIFPVVPTTFTETGELDLASQKRAVDFMIDAGSDGLCILANFSEQFALADDERDVLTRTILEHVAGRVPVIVTTSHYSTQTCIARSVRAQQLGAAMVMVMPPYHGATFRVPEAQIHAFYARLSDALSIPIMIQDAPASGTVLSAPFLAQLAREIEHVAYFKIETPGAATKLRELIRLGGDAIEGPWDGEEAITLLADLHAGATGAMTGGAYPDGIRPILEAHREGRHDDAFARYQTWLPLINHENRQSGILTAKALMREGGVIACEAPRHPMPTLHPDTRAELIAIARRLDPLVLRWAR
notes: coupled with AraC and KGSADH
For B2, the Km [2] was 9700 µM and the kcat [2] was 0.23 s⁻¹.

B3: Burkholderia xenovorans LB400 2-keto-3-deoxy-D-xylonate dehydratase (DR64_8450) (Paraburkholderia xenovorans LB400) (protein)
chain: MSATSPSSFLPDDLGQALLVGRVWRKTDQHEGPSVVVVRGGEVFDITATVPTTADLFDREDAAPLARTAPGVSLGAVAQLIASNLPGAAAPALRLLAPCDVQAIKACGVTFAVSLIERVIEEQAAGDPAKAKEVRDTIASMIGTDLSKIEPGSDAAMKLKAELERRGAWSQYMEVGIGPDAEVFSKSQPMSAVGFGADVGLLAASTWNNPEPEIVLAVNSRGEIVGATLGNDVNLRDIEGRSALLLGKCKDNNGSCAIGPFVRLFDESFSLDSVRTASVALRVEGADDGFVLEGVSHMSEISRDPANLVAQTWGRHHQYPDGFMLFLGTMFSPIKDRDAPGAGFTHHLGDLVTISTPQLGALTNTVRLSTEIEPWTFGVRALYRNLAARGLLASA
notes: coupled with D-xylonate dehydratase and KGSADH
B3 showed a Km [3] of 8960 ± 200 µM, a kcat [3] of 4.72 ± 0.5 s⁻¹ and a kcat/Km [3] of 530 M⁻¹ s⁻¹.

B4: E. coli D-galactarate dehydratase (GarD) (Escherichia coli K-12) (protein)
chain: MANIEIRQETPTAFYIKVHDTDNVAIIVNDNGLKAGTRFPDGLELIEHIPQGHKVALLDIPANGEIIRYGEVIGYAVRAIPRGSWIDESMVVLPEAPPLHTLPLATKVPEPLPPLEGYTFEGYRNADGSVGTKNLLGITTSVHCVAGVVDYVVKIIERDLLPKYPNVDGVVGLNHLYGCGVAINAPAAVVPIRTIHNISLNPNFGGEVMVIGLGCEKLQPERLLTGTDDVQAIPVESASIVSLQDEKHVGFQSMVEDILQIAERHLQKLNQRQRETCPASELVVGMQCGGSDAFSGVTANPAVGYASDLLVRCGATVMFSEVTEVRDAIHLLTPRAVNEEVGKRLLEEMEWYDNYLNMGKTDRSANPSPGNKKGGLANVVEKALGSIAKSGKSAIVEVLSPGQRPTKRGLIYAATPASDFVCGTQQVASGITVQVFTTGRGTPYGLMAVPVIKMATRTELANRWFDLMDINAGTIATGEETIEEVGWKLFHFILDVASGKKKTFSDQWGLHNQLAVFNPAPVT
Protein B4 has a Km [4] of 760 µM and a kcat [4] of 18.9 s⁻¹.

B5: Burkholderia xenovorans LB400 D-xylonate dehydratase (DR64_8449) (Paraburkholderia xenovorans LB400) (protein)
chain: MSASTPRRLRSQEWFDDPSHADMTALYVERFMNYGLTREELQSGRPIIGIAQTGSDLAPCNRHHIELAARTKAGIRDAGGIPMEFPVHPLAEQSRRPTAALDRNLAYLGLVEILHGFPLDGVVLTTGCDKTTPACLMAAATVDMPAIVLSGGPMLDGWHEGKRVGSGTVIWHARNLLATGEIDYEGFMQLTTASSPSIGHCNTMGTALSMNSLAEALGMSLPGCASIPAAYRERGQMAYATGKRIVDLVREDVRPSHIMTKAAFENAIVVASALGASTNCPPHLIAIARHMGVELTLDDWQRVGEQVPLIVNCMPAGEYLGESFHRAGGVPAVLRELVHAQLVHRECLTVSGRTIGEIAADAPSPDRDVIRTTEDPLKHGAGFIVLSGNFFDSAIMKMSVVGEAFRQTYLSEPGNENTFEARAIVFDGPEDYHARINDPSLDIDQHCILVIRGAGTVGYPGSAEVVNMAPPAELVRQGITSLPTLGDGRQSGTSASPSILNMSPEAAVGGGLSLLRTNDRIRVDLNSRSVNVLVDDEELARRRETATFAIPPTQTPWQELYRQTVGQLSTGGCLEPATLYLKVIAERGNPRHSH
notes: gene from LB400 genomic DNA
For B5, the Km [5] was 1520 ± 80 µM, the kcat [5] was 1.73 ± 0.3 s⁻¹ and the kcat/Km [5] was 1140 M⁻¹ s⁻¹.

B6: Burkholderia multivorans L-arabinose dehydrogenase (AraA, BmulJ 5320) (Burkholderia multivorans ATCC 17616) (protein)
chain: MSQVVSLGVVGIGKIARDQHLPAIAAEPGFALTACASRHAEVTGVRNYPDLGALLAGEPELAAVSLCAPPQVRYAQARAALNAGKHVMLEKPPGATLGEVAALEALAQSRGLTLFATWHSRCASAVEPARAWLATREIRAVQVRWKEDVRRWHPGQQWIWEPGGLGVFDPGINALSIVTRILPRELVLREATLVVPSDTQTPIAAELECADTDGVPVHAEFDWRHGPVEQWEIAVDTADGVLAISAGGAKLSIAGEPVEVGPAREYPALYAQFHALIARRESDVDVRPLRLVADAFLFGRRVDTEAFGR
notes: gene from B. multivorans genomic DNA
B6 showed a kcat [6] of 101.4 s⁻¹.

B7: Caulobacter crescentus D-xylonate dehydratase (XylD) (Caulobacter vibrioides CB15) (protein)
chain: MRSALSNRTPRRFRSRDWFDNPDHIDMTALYLERFMNYGITPEELRSGKPIIGIAQTGSDISPCNRIHLDLVQRVRDGIRDAGGIPMEFPVHPIFENCRRPTAALDRNLSYLGLVETLHGYPIDAVVLTTGCDKTTPAGIMAATTVNIPAIVLSGGPMLDGWHENELVGSGTVIWRSRRKLAAGEITEEEFIDRAASSAPSAGHCNTMGTASTMNAVAEALGLSLTGCAAIPAPYRERGQMAYKTGQRIVDLAYDDVKPLDILTKQAFENAIALVAAAGGSTNAQPHIVAMARHAGVEITADDWRAAYDIPLIVNMQPAGKYLGERFHRAGGAPAVLWELLQQGRLHGDVLTVTGKTMSENLQGRETSDREVIFPYHEPLAEKAGFLVLKGNLFDFAIMKSSVIGEEFRKRYLSQPGQEGVFEARAIVFDGSDDYHKRINDPALEIDERCILVIRGAGPIGWPGSAEVVNMQPPDHLLKKGIMSLPTLGDGRQSGTADSPSILNASPESAIGGGLSWLRTGDTIRIDLNTGRCDALVDEATIAARKQDGIPAVPATMTPWQEIYRAHASQLDTGGVLEFAVKYQDLAAKLPRHNH
notes: His; made in house; host or cells: E. coli BL21
Work on B7 yielded a Km [7] of 1180 ± 50 µM, a kcat [7] of 7.6 ± 1.1 s⁻¹ and a kcat/Km [7] of 6400 M⁻¹ s⁻¹.

B8: Caulobacter crescentus 2-keto-3-deoxy-D-xylonate dehydratase (XylX) (Caulobacter vibrioides NA1000) (protein)
chain: MGVSEFLPEDWKAATLLGRIDFGEGPTPVLVRGGRVEDVSKIAPTVADLMNAFQPGAVIPRGEDKGPLEALDIRPVWEDPDGAAPVKLLAPVDLQCLKAAGVTFAVSTLERVIEERARGDAGEALKIRTLLAERMGGDLKSVEPGSQGAQRLKDALIADGLWSQYLEVAIGPDAEIFTKGPTLSSMGWGDQVGVRYDSHWNNPEPEVVLLCDGSGLIRGAALGNDVNLRDFEGRSALLLSKAKDNNASCAIGPFFRLFDETFGLDDVRSAEVELKITGRDNFVLDGKSNMSLISRDPAVLAGQAYGKQHQYPDGFALFLGTMFAPIQDRDTPGQGFTHKVGDRVRVSTPKLGVLENEVTTCDKAKPWTFGISALIRNLAGRGLL
notes: coupled with XylD and KGSADH; BlpI site removed in gene
B8 gave a Km [8] of 1900 ± 80 µM, a kcat [8] of 0.53 ± 0.1 s⁻¹ and a kcat/Km [8] of 260 M⁻¹ s⁻¹.

From patent US20170137855A1, “RECOMBINANT CELLS AND METHODS FOR NONPHOSPHORYLATIVE METABOLISM” (REGENTS OF THE UNIVERSITY OF MINNESOTA, priority 2015, published 2017)
